In publication PMC3483155, “Inhibition of Pre-mRNA Splicing by a Synthetic Blom7α-Interacting Small RNA”:

Tests used:
Blom7-KH = Blom7-KH (Homo sapiens, UniProt Q7Z7F0 1-317); test: EMSA; 1 mM Mg2+; 20 nM RNA, 0-50 nM protein; EMSA: PBS pH 7.5, 1 mM MgCl2, 1 mM DTT, 5% glycerol, 20 min at room temperature, gel at 4°C; SPR: 1x PBS, 1 mM Mg acetate, pH 7.0 (or HEPES + 3 mM Mg acetate); conditions: protein: recombinant; tags: His6 (C-terminal as named, pET30A); label: 3' biotin; single strand
Blom7α wt = Blom7α wt (Homo sapiens, UniProt Q7Z7F0 1-614); test: as above

UGCCCCAAUCCUACACGACCCAAGGCCCCC (ssRNA) [AK48]: binds (Blom7-KH); binds (Blom7α wt).
